Data published in PMC8825819, “Structure of Escherichia coli O157:H7 bacteriophage CBA120 tailspike protein 4 baseplate anchor and tailspike assembly domains (TSP4-N)” (Scientific Reports, 2022).

Key:
[1] = molecular target: TSP4 devoid of the AD-XD1 domains, residues 185-1036 (bacteriophage CBA120) (UniProt G3M192); test: AUC; sedimentation velocity of single proteins and of mixtures, PBS pH 7.4, 20 °C, absorbance at 280 nm, 30-50 krpm; c(s) by SEDFIT; Kd and koff by Lamm equation modelling with a two-site heterogeneous association model A + B + B = AB + B = ABB (A: TSP4-N335 hexamer, B: partner TSP trimer; two symmetric sites, no cooperativity)
[2] = molecular target: TSP4-N181 (AD-XD1 of TSP4) (bacteriophage CBA120) (UniProt G3M192); test: as above
[3] = molecular target: TSP4-N490 (AD-XD1-XD2-XD3 region followed by the D1-D2 head region of TSP4) (bacteriophage CBA120) (UniProt G3M192); test: as above
[4] = molecular target: TSP4-N335, the 335 N-terminal residues of tailspike protein 4 of bacteriophage CBA120 (AD-XD1-XD2-XD3) (bacteriophage CBA120) (UniProt G3M192); test: as above
[5] = molecular target: TSP4-N253 (AD-XD1-XD2 of TSP4, lacking XD3) (bacteriophage CBA120) (UniProt G3M192); test: as above
[6] = molecular target: TSP4-N335, the 335 N-terminal residues of tailspike protein 4 of bacteriophage CBA120 (AD-XD1-XD2-XD3) (bacteriophage CBA120) (UniProt G3M192); test: AUC; sedimentation velocity in 50 mM TRIS pH 8.0 or HEPES pH 7.3, 150 mM NaCl, 0.1-0.5 mM Zn2+ (100 μM ZnCl2 in the legend)
[7] = molecular target: the molecule itself; test: as above
[8] = molecular target: the molecule itself; test: AUC; sedimentation velocity of single proteins and of mixtures, PBS pH 7.4, 20 °C, absorbance at 280 nm, 30-50 krpm; c(s) by SEDFIT; Kd and koff by Lamm equation modelling with a two-site heterogeneous association model A + B + B = AB + B = ABB (A: TSP4-N335 hexamer, B: partner TSP trimer; two symmetric sites, no cooperativity)
[9] = molecular target: TSP4-N335, the 335 N-terminal residues of tailspike protein 4 of bacteriophage CBA120 (AD-XD1-XD2-XD3) (bacteriophage CBA120) (UniProt G3M192); test: AUC; sedimentation equilibrium, PBS, 20 °C, 3 or 4 speeds (3000-12,000 rpm); global fit with SEDPHAT; for mixtures the two-site model A + B + B = AB + B = ABB
[10] = molecular target: TSP4-N335, the 335 N-terminal residues of tailspike protein 4 of bacteriophage CBA120 (AD-XD1-XD2-XD3) (bacteriophage CBA120) (UniProt G3M192); test: AUC; sedimentation velocity of single proteins and of mixtures, PBS pH 7.4, 20 °C, absorbance at 280 nm, 30-50 krpm; c(s) by SEDFIT; Kd and koff by Lamm equation modelling with a two-site heterogeneous association model A + B + B = AB + B = ABB (A: TSP4-N335 hexamer, B: partner TSP trimer; two symmetric sites, no cooperativity); remark: listed apart in the source
[11] = molecular target: TSP4-N490 (AD-XD1-XD2-XD3 region followed by the D1-D2 head region of TSP4) (bacteriophage CBA120) (UniProt G3M192); test: as above; remark: listed apart in the source
[12] = molecular target: TSP4-N181 (AD-XD1 of TSP4) (bacteriophage CBA120) (UniProt G3M192); test: as above; remark: listed apart in the source

“TSP4 devoid of the AD-XD1 domains, residues 185-1036 (from UniProt G3M192 185-1036) (domain or fragment)” showed a stoichiometry N [1] of 3.

Molecule “TSP4-N181 (AD-XD1 of TSP4) (from UniProt G3M192 1-181) (domain or fragment)” has a stoichiometry N [2] of 6.

Work on “TSP4-N490 (AD-XD1-XD2-XD3 region followed by the D1-D2 head region of TSP4) (from UniProt G3M192 1-490) (domain or fragment)” yielded a stoichiometry N [3] of 6.

“TSP4-N335, the 335 N-terminal residues of tailspike protein 4 of bacteriophage CBA120 (AD-XD1-XD2-XD3) (from UniProt G3M192 1-335) (domain or fragment)” showed a stoichiometry N ([4]; mixed monomer and hexamer sample) of 3 and a stoichiometry N ([4]; purified single-species sample) of 6.

Work on “TSP4-N253 (AD-XD1-XD2 of TSP4, lacking XD3) (from UniProt G3M192 1-253) (domain or fragment)” yielded a stoichiometry N [5] of 6.

B1: TSP1 head, residues 14-166 (D1-D2 domains and the alpha-helical neck, without the 13 N-terminal amino acids) (domain or fragment, bacteriophage CBA120, UniProt G3M189 14-166, looked up)
chain: GILTNKQAVARHFGVKQSEVVYFSVGVDLGGYKVIYDKETQRAYSLPVGIASGTTAVSLSTAAVLVHSAGSVDLGSLAVSREEYVTLPGSFDSGSTLNVKNELLTYTDGKYRWDGILPKTVAPGSTPASTGGVGLGAWISVGDASLRTQLANG
notes: TSP1 of phage CBA120, D1-D2 head and neck, residues 14-166; Trimerisation was promoted by Zn2+; also called TSP1_(14-166); TSP1-N_(14-166)
For B1, the stoichiometry N (TSP1 (14-166):TSP4-N335 (chains)) ([6]; one trimer bound per hexamer) was 0.5, the stoichiometry N (TSP1 (14-166):TSP4-N335 (chains)) ([6]; two trimers bound per hexamer) was 1 and the “stoichiometry N” value [7] was 3.

B2: Tailspike protein 1 of bacteriophage CBA120 (natural protein)
chain: MNEMFSQGGKGSTGILTNKQAVARHFGVKQSEVVYFSVGVDLGGYKVIYDKETQRAYSLPVGIASGTTAVSLSTAAVLVHSAGSVDLGSLAVSREEYVTLPGSFDSGSTLNVKNELLTYTDGKYRWDGILPKTVAPGSTPASTGGVGLGAWISVGDASLRTQLANGDGSLIGIHPQGTLNNVLTVRTPEQYNAVGDGIADDTSKLKEMLSDINNVPETLPDAAAVNSYMEQVAVKIDLTKLYRFTETLYIPPGVSIEIPTSNFFTRECKQGLFYDPVDKNTAAISLMVYRKQPDGSYKLNKDVDYYPTGLDIDNGDAITCARKIDINNLNLITAPGVKVGVKWIGGAGCTTKGLSIGENTGSDITTARLPRVGLLQSASWGSIHENLRILYKTQGAVFIDSNGGAAVNNAYISRLGNTNGELEQAVYKPAGFTEVGDVAVTQFAGSEVKFNSPIIEQASFDFVHAGRDTDSYGLFMVDKPHIESSGGKKKHSFYLINTSSNVTLSGVGLSGQDPDLDSMYFLKNCPETARNVVRGQMPISGVKLVRGTGNYPTLVLDCTNMGSQFQFGEVGDIFYIKDVVGVKADTLYIDPVNGNNYNWGTNGTKPIRELTNIAKICQLFRCKSVYLNAGESVITSNTELPMVVFEGPGSLKANSGSSFLIKAGGTLSLIGLSGISTDGGHMFRVSTVEKVNIHTNCSVNAGAAYVVLSEVQGNIEYRQLFYSVNCSKYIGATAGQTIAGIMVKTATRPTGIDAAPVDGNVSLTYKIIES
notes: Homotrimer by SV (MWcalc of the trimer 248 kDa); also called TSP1
B2 was tested, and the “stoichiometry N” value [8] was 3, the Kd [9] was 0.08 µM and the Kd [10] was 0.06 µM. The koff [10] was 0.0001 s⁻¹, the stoichiometry N (TSP1:TSP4-N335 (chains)) ([10]; one trimer bound per hexamer) was 0.5 and the stoichiometry N (TSP1:TSP4-N335 (chains)) ([10]; two trimers bound per hexamer) was 1.

B3: Tailspike protein 2 of bacteriophage CBA120 (natural protein, UniProt G3M190 1-921, looked up)
chain: MTRNVEELFGGVITAPHQIPFTYKSNVGGETFLSLPFYPVTGVVTINGGMQVPLDNFEIEGNTLNLGRALSKGDVVYCLFDKILSPEDTAKGIRIYKFQAVGGETEFTPDFTSYGVQSLYIGGEYKTPEIEYSYDSTTGKVSLQTALSAGVWVVAEMSVKQPNISPAFDRSIQEIARSANVKDSEVIVSTDTISLLDGKKVVYDIATQTSYGLPTIPDGSVISSVSAGKLNYNPGDVQVDLLPLEDSFINVINTLGRNDGAKYIGECHSVADLRNTEPTMDGQRIILKQHTAGTLLGGGVFRALIDGTGKTDNNGTVIKTVGGAAWLRVNADRVNPFMFGALGGSNDDTIPVQSCVDSGKATQLTDAHYVSNIQLKYNTSSIYGSGLHYSRLHQLPSATGNCITIKDTCSLIVLDAFGVYGTGAQQGTSFTAGTTGIYVETPSGLSADYPFHTTADPRRDLCISKVHIAGFDEYGLNIDSGNFSVTTDSLLVNHINQVGVRCATTDWTWTNIQVNTCGKQCLVLDGCGNGRIIGGKFIWANWQPYGTVGQFPGITINNSQNMVINGIEVQDCGGNGIEISESYSISMNGLNTNRNGINANNTFYNIVFNKSDAVINGFVGLNYAANSGSGANSSAGNFQFLSNDCSVTINGVVETGYMGINFIGDNNIINPTNSDLSINGLVNYSKTGLQTMNETPTFDGVSTTPVYVSVPSSVGQVNGLRLSQANKDKLLYSRTAGPEGITMAAVIVPTISGAEVFNFMAIGSGFSDTSNSLHLQLVIDASGKQTIALLLGGDGTTQILSGDLPNDLKLQSGVPYHIAIGAKPGYFWWSILNIQTGKRIRRSFRGAYLAVPFNSIFGLTSSLTFFSDSNAGGDACSGVGAKVYVGMFSSENDYVASRYYNLINPVDPTKLISYRILDSSI
notes: Homotrimer by SV (MWcalc of the trimer 297 kDa); also called TSP2
For B3, the “stoichiometry N” value [8] was 3, the Kd [9] was 0.075 µM and the Kd [10] was 0.11 µM. It also gave a koff [10] of 0.00025 s⁻¹, a stoichiometry N (TSP2:TSP4-N490 (chains)) ([11]; one trimer bound per hexamer) of 0.5 and a stoichiometry N (TSP2:TSP4-N490 (chains)) ([11]; two trimers bound per hexamer) of 1. It also gave a stoichiometry N (TSP2:TSP4-N181 (chains)) ([12]; one trimer bound per hexamer) of 0.5 and a stoichiometry N (TSP2:TSP4-N181 (chains)) ([12]; two trimers bound per hexamer) of 1.
